Assay results: patent US20050112698A1 (Bayer, published 2005)
Blank lines part the entries; values can stand above or below the binder they belong to.

Legend:
[1] = molecular target: T1, Cynomolgus Monkey SCF (cynomolgus monkey, UniProt A0A7N9CAX5 26-189); assay: cell-based or functional assay
[2] = molecular target: T2, rat Stem Cell Factor (rat, UniProt P21581 26-189, limits assumed); assay: cell-based or functional assay
T2 sequence (looked up): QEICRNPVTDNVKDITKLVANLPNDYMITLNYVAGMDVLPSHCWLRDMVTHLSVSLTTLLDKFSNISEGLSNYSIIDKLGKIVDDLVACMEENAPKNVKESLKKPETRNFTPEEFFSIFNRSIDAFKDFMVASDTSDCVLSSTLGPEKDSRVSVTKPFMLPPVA

[3] = molecular target: T3, human Stem Cell Factor (human, UniProt P21583 26-189); assay: cell-based or functional assay
T3 sequence (P21583 other isoform, or with tags, fused parts or gaps limits assumed): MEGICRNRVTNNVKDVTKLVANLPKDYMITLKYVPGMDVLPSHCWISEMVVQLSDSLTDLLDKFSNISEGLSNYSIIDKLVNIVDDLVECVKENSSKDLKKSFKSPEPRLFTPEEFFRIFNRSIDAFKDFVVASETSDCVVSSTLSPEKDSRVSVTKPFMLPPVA

[4] = molecular target: T3, human Stem Cell Factor; assay: BIAcore, Fab on immobilized SCF
[5] = molecular target: T3, human Stem Cell Factor; assay: cell-based or functional assay; remark: listed apart in the source
[6] = molecular target: T3, human Stem Cell Factor; assay: cell-based or functional assay; remark: listed apart in the source
[7] = molecular target: T1, Cynomolgus Monkey SCF; assay: cell-based or functional assay; remark: listed apart in the source
[8] = molecular target: T3, human Stem Cell Factor; assay: cell-based or functional assay; remark: listed apart in the source
[9] = molecular target: T1, Cynomolgus Monkey SCF; assay: SPR BIAcore, initial screening (high RU of immobilized antigen, low flow rate)
Method: Analysis of Fab binding to cSCF was performed by surface plasmon resonance using a BIAcore 2000 (Biacore, Piscataway, N.J.), according to the manufacturer's instructions and a CM5 chip (Biacore) coated with cSCF. For amine coupling, a research grade CM5 chip was activated using the standard NHS/EDC procedure. Cynomologus monkey SCF was diluted to 20 μg/ml in 10 mM NaAcetate, pH 5.0, and a total of 5000 RU's were coupled to channel 2 of the sensor surface. The remaining active sites were quenched by the addition of 1M ethanolamine, pH 8.0. Channel 1 was subjected to the coupling procedure in the absence of protein and was used as a reference surface. […] The koff was calculated from a single concentration of Fab using BIAevaluation software (Biacore).
The koffrates determined using kinetic conditions (low RU's of immobilized antigen and high flow rates) on the BIAcore gave higher values than those koff's determined under non-kinetic conditions used during the initial screening procedure (high RU's of immobilized antigen and low flow rates). This is especially apparent for the A2-G8 Fab, where a koff of 6×10⁻³ sec⁻¹ was measured during the initial screening process, compared to a koff value of 1×10⁻² sec⁻¹ measured using kinetic parameters. […] The koff rates determined in the initial screening process, therefore, should not be considered absolute values but a ranking with other Fabs.

[10] = molecular target: T1, Cynomolgus Monkey SCF; assay: SPR BIAcore, 5000 RU immobilized cSCF, off-rate ranking; high density chip (5000 RU cSCF), off-rate ranking
Method: (§1) TABLE 12 Sequences of the CDR3 Vk1 Region of Selected Antibody Clones with Comparison of koff and SCF Inhibitory Activity The off-rates were determined using a high density surface CM5 chip (5000 RU of immobilized cSCF) on BIAcore and are shown with comparison to the original A2-G8 clone. […] The IC₅₀ in the TF-1 proliferation assay was based on an average of two assays with the exception of the A2-G8-IgG (n = 5).
Analysis of Fab binding to cSCF was performed by surface plasmon resonance using a BIAcore 2000 (Biacore, Piscataway, N.J.), according to the manufacturer's instructions and a CM5 chip (Biacore) coated with cSCF. For amine coupling, a research grade CM5 chip was activated using the standard NHS/EDC procedure. Cynomologus monkey SCF was diluted to 20 μg/ml in 10 mM NaAcetate, pH 5.0, and a total of 5000 RU's were coupled to channel 2 of the sensor surface. The remaining active sites were quenched by the addition of 1M ethanolamine, pH 8.0. Channel 1 was subjected to the coupling procedure in the absence of protein and was used as a reference surface. Extracts were diluted 1/5 in HBS-EP running buffer and injected for 2 min using a flow rate of 20 μl/min. The surface was regenerated by two consecutive injections of 25 μl, 10 mM glycine, pH 2.5, using a flow rate of 100 μl/min. The koff was calculated from a single concentration of Fab using BIAevaluation software (Biacore).

[11] = molecular target: T1, Cynomolgus Monkey SCF; assay: competition ELISA: cSCF binding to coated human SCFR, Fab 3.1 µg/ml
Method: The extracts containing Fab were also tested for the ability to inhibit SCF binding to the SCF receptor. ELISA plates were coated overnight with 2 μg/ml human SCFR (R&D Systems, Minneapolis, Minn.) in PBS at 4° C. After washing with TBS-T, the plate was blocked with 5 mg/ml BSA in PBS. The extract was diluted 1/5 in PBS buffer containing 12.5 ng/ml cSCF and 1 mg/ml BSA. After a 1 hr incubation at room temperature, 100 μl was added to the blocked ELISA plate and incubated an additional hour. The plate was washed 5 times with TBS-T, and 100 μl of a 0.4 μg/ml solution of anti-SCF (R&D Systems) in 1 mg/ml BSA in PBS was added. After 1 hour the plate was washed and incubated with anti-Mouse-HRP (Sigma, St. Louis, Mo.). The plate was developed with BM Blue POD substrate (Roche Diagnostics, Chicago, Ill.) and read at 370 nm.
as §1

[12] = molecular target: T1, Cynomolgus Monkey SCF; assay: SPR BIAcore 2000, Fab over 185 RU immobilized cSCF
Method: (§2) Affinity measurements were carried out on a BIAcore 2000 (Biacore) at 25° C. […] Purified Fab's were diluted in HBS-EP running buffer at concentrations ranging from 1.95 to 125 nM. A volume of 100 μl was injected using a flow rate of 50 μl/min in Kinject mode. After a 10 min dissociation, 50 μl of 10 mM Glycine, pH 2.5 and 25 μl of 10 mM Glycine, pH 2.0 was injected using a flow rate of 100 μl/min. All samples were run in duplicate. […] Cynomologus monkey SCF was diluted in HBS-EP running buffer at concentrations ranging from 15.6 to 500 nM and 150 μl injected at a flow rate of 50 μl/min. After a 15 min dissociation, 50 μl of 10 mM Glycine, pH 2.5, and 25 μl of 10 mM Glycine, pH 1.5 was injected using a flow rate of 100 μl/min. All samples were run in duplicate. The data was globally fit to the 1 to 1 binding model using BIAevaluation software. The raw experimental data were corrected for instrumental and bulk solvent artifacts by double referencing using both activated and blocked surfaces as controls.
(§3) To evaluate the binding properties of anti-SCF Fabs selected from affinity optimization of the CDR3 loop with SCF, the real time interaction was measured using surface plasmon resonance with the BIAcore 2000. […] The improvement in Kd's are primarily governed by a substantial reduction in the off-rate (koff). […] The affinity constants for Fab binding to human SCF were slightly lower than those Kd's for cynomologus monkey SCF. The panning design, with lower antigen concentrations and extensive washing steps, favors off-rate selection. The affinity of the A2-G8 clone in an IgG vector was measured using the IgG immobilized to the surface of the CM5 chip.

[13] = molecular target: T3, human Stem Cell Factor; assay: BIAcore, Affinity Estimation, Fab
[14] = molecular target: T1, Cynomolgus Monkey SCF; assay: SPR BIAcore, off-rate (legend: 5000 RU immobilized cSCF); Table 12 off-rate list (legend: immobilized cSCF)
[15] = molecular target: T1, Cynomolgus Monkey SCF; assay: SPR BIAcore 2000, cSCF over 550 RU immobilized IgG
Method: as §2, §3

[16] = molecular target: T3, human Stem Cell Factor; assay: cell-based or functional assay; remark: listed apart in the source

- IC50, inhibition of cyno SCF in TF-1 proliferation [1]: 20 to 60 µg/mL
- percent inhibition of SCF-induced TF-1 proliferation at 200 ug/ml Fab [1]: > 100%
- IC50, inhibition of rat SCF in TF-1 proliferation [2]: 20 to 60 µg/mL
- percent inhibition of SCF-induced TF-1 proliferation at 200 ug/ml Fab [2]: > 100%
- percent inhibition of SCF-induced TF-1 proliferation at 200 ug/ml Fab [3]: > 100%
- Kd [4]: 65.7 nM
- Efficacy IC50 (TF-1 proliferation assay, Fab) [5]: 29 µg/mL
B1: Fab A2 (Fab, V domains shown)
VH: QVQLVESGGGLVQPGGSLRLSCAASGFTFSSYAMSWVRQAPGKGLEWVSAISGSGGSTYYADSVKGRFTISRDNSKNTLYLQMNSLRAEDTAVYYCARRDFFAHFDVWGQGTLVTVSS
VL: DIQMTQSPSSLSASVGDRVTITCRASQGISSYLAWYQQKPGKAPKLLIYAASSLQSGVPSRFSGSGSGTDFTLTISSLQPEDFATYYCQQYSGMPYTFGQGTKVEIK
notes: HuCAL Fab and parent of the A2-xx clones; It carries FLAG and Strep tags

- TF-1 Fab assay IC50 [6]: 5 µg/mL
- IC50 TF-1 cynoSCF Assay [7]: 5.7 µg/mL
- IC50 TF-1 huSCF Assay [8]: 2.36 µg/mL
- koff [9]: 0.006 s⁻¹
- koff [10]: 0.00306 s⁻¹
- % Inhibition SCF Binding ELISA Assay [11]: 30%
- Kd [12]: 25.1 nM
- koff [12]: 0.0106 s⁻¹
- kon [12]: 420000 M⁻¹ s⁻¹
- Kd [13]: 9 nM
B2: Fab A2-G8 (Fab, V domains shown)
VH: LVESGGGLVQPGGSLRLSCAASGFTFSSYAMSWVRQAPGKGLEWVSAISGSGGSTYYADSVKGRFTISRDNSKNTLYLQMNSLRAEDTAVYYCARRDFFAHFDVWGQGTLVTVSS
VL: QMTQSPSSLSASVGDRVTITCRASQGIRGYLGWYQQKPGKAPKLLIYSASSLQSGVPSRFSGSGSGTDFTLTISSLQPEDFATYYCQQYSGMPYTFGQGTKVEIKR
notes: Fab format; also called anti-SCF Fab A2-G8; parent Fab A2-G8

- TF-1 IgG assay IC50 [6]: 1 µg/mL
- koff [14]: 0.0013 s⁻¹
- IC50 TF-1 cynoSCF Assay [7]: 11.2 µg/mL
- IC50 TF-1 huSCF Assay [8]: 2.32 µg/mL
- Kd [15]: 35.8 nM
- koff [15]: 0.0013 s⁻¹
- kon [15]: 36300 M⁻¹ s⁻¹
- IC50, TF-1 (SCF-induced TF-1 proliferation) [16]: 1 µg/mL
B3: A2-G8 IgG (antibody, V domains shown)
VH: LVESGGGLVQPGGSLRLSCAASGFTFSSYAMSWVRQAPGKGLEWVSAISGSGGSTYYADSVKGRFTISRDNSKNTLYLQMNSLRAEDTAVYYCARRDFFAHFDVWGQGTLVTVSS
VL: QMTQSPSSLSASVGDRVTITCRASQGIRGYLGWYQQKPGKAPKLLIYSASSLQSGVPSRFSGSGSGTDFTLTISSLQPEDFATYYCQQYSGMPYTFGQGTKVEIKR
notes: Human IgG1 kappa expressed in HKB11 cells; also called A2-G8 Mab; SCF antibody A2-G8
- Eosinophil IgG assay IC50 (human eosinophil survival) [6]: 1.5 µg/mL
- IC50, Cyno Eos (SCF-stimulated cyno eosinophil survival) [16]: 3 µg/mL
- IC50, Human Eos (SCF-stimulated human eosinophil survival) [16]: 1.5 µg/mL
